Test system: MS2 coat protein
Test: apparent KD of MS2 coat protein; designed switch direction (-1 OFF switch, 1 ON switch): 1; higher = weaker reporter binding
In short: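 Three titration conditions were used: no input, 200 uM small-molecule ligand, and an oligonucleotide input. In each, SNAP-549-labelled MS2 coat protein was raised from 0.7 or 1.5 nM, doubling, to 3 µM over designed RNA switches transcribed on Illumina chips by stalled E. coli RNA polymerase. Curve fits of normalised cluster fluorescence gave values whose per-design median over clusters is the apparent KD.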

[1] = Eterna round: R95, input ligand: FMN 200 uM
[2] = Eterna round: R95, input ligand: microRNA oligo, concentration not stated
[3] = Eterna round: R95, input ligand: none
[4] = input ligand: microRNA oligo, concentration not stated

Sequence	apparent KD of MS2 coat protein [1]	apparent KD of MS2 coat protein [2]	apparent KD of MS2 coat protein [3]	apparent KD of MS2 coat protein (input ligand: FMN 200 uM)	apparent KD of MS2 coat protein [4]	apparent KD of MS2 coat protein (input ligand: none)
GUACUACAUGAGGAUCACCCAUGUACAAAAGUACGAGGAUAUGCAUGGACGAAAGUUGGUGCAGAAGGCGUAGUAC [Pin2Pin #3] (puzzle: Same State 1)	20.2 nM	25.9 nM	24 nM	–	–	–
GUAGAUGUAGAGGAGGAUAUUCAAUGAGGAACAUGAGGAUCACCCAUGUAAGAGAGAGAUGAUAGGAAGAAGGCUUAGAGAGAUG [Altered State 2-5 - Jieux - Same State 2] (puzzle: Same State 2)	24.2 nM	31.7 nM	43.1 nM	–	–	–
GUAGCAUACCGAGGAUAUUCAACAUGAGGAUCACCCAUGUGUUUAUUAUAGGCCAAAAGGCCUUGGGAGAAGGCGGAAUGCUAC [Xeonanis - 20 Mod15] (Eterna round: R96, puzzle: Same State NG 2)	–	–	–	9.4 nM	8.4 nM	15.7 nM
GUAGCAUACCGAGGAUAUUCAUAACCGAAAGGAACAUGAGGAUCACCCAUGUGGCGAAAGCCUUGGGAGAAGGCGGAAUGCUAC [Xeonanis - 20 Mod74] (Eterna round: R96, puzzle: Same State NG 2)	–	–	–	42.8 nM	291 nM	957 nM
GUAGCAUACCGAGGAUAUUCAUACAUGAGGAUCACCCAUGUUAAUAGGCCACAUUAGUGGCCUUGGGAGAAGGCGGAAUGCUAC [Xeonanis - 20 Mod46] (Eterna round: R96, puzzle: Same State NG 2)	–	–	–	14.1 nM	10.7 nM	16.6 nM
GUAGCAUACCGAGGAUAUUCAUAUACAUGAGGAUCACCCAUGUUAAUAUAGGCCAAAAGGCCUUGGGAGAAGGCGGAAUGCUAC [Xeonanis - 20 Mod11] (Eterna round: R96, puzzle: Same State NG 2)	–	–	–	9.01 nM	9.83 nM	13.3 nM
GUAGCAUACCGAGGAUAUUCAUAUACAUGAGGAUCACCCAUGUUUAUAGGUCGAUUACGACCUUGGGAGAAGGCGGAAUGCUAC [Xeonanis - 20 Mod31] (Eterna round: R96, puzzle: Same State NG 2)	–	–	–	10.8 nM	9.68 nM	13.9 nM
GUAGCAUACCGAGGAUAUUCAUAUAUACAUGAGGAUCACCCAUGUUAAAAUAGGCGAAAGCCUUGGGAGAAGGCGGAAUGCUAC [Xeonanis - 20 Mod67] (Eterna round: R96, puzzle: Same State NG 2)	–	–	–	9.45 nM	11.4 nM	15 nM
GUAGCAUACCGAGGAUAUUCAUAUUAACAUGAGGAUCACCCAUGUUUAGGCCGAUUACGGCCUUGGGAGAAGGCGGAAUGCUAC [Xeonanis - 20 Mod22] (Eterna round: R96, puzzle: Same State NG 2)	–	–	–	10.9 nM	14.9 nM	25.1 nM
GUAGCAUACCGAGGAUAUUCAUAUUACAUGAGGAUCACCCAUGUUAGGCCACAUUAGUGGCCUUGGGAGAAGGCGGAAUGCUAC [Xeonanis - 20 Mod40] (Eterna round: R96, puzzle: Same State NG 2)	–	–	–	14.6 nM	69.7 nM	104 nM
GUAGCAUACCGAGGAUAUUCAUUACAUGAGGAUCACCCAUGUUUUAUAGGCCGAUUACGGCCUUGGGAGAAGGCGGAAUGCUAC [Xeonanis - 20 Mod27] (Eterna round: R96, puzzle: Same State NG 2)	–	–	–	–	9.7 nM	–
GUAGCAUGCACCGAGGAUAUUCAUAUUAAAACAUGAGGAUCACCCAUGUAGGCCAAAAGGCCUUGGGAGAAGGCGGACAUGCUAC [Xeonanis - 21] (puzzle: Same State 2)	23.5 nM	178 nM	422 nM	–	–	–
GUAGCCGGCACUGAGGAUAUUCAUAUUUAAACAUGAGGAUCACCCAUGUAGGCCAGAAGGCCUUGGGAGAAGGCAGGUCGGCUCG [salish99_ss2_r3_081] (puzzle: Same State 2)	20.7 nM	210 nM	294 nM	–	–	–
GUAUAACAUGAGGAUCACCCAUGUCAACAAAGUCGAGGAUAUGGGCAAUUAUAAUUAGAACCAGAAGGCGAAUAGU [Mat - Same State 1 - Mod of UCT - D43] (puzzle: Same State 1)	30.8 nM	287 nM	251 nM	–	–	–
GUAUAACAUGAGGAUCACCCAUGUCAUCUAAGUCGAGGAUAUGGGCAAAUAAUAUAAGAACCAGAAGGCGAAUAUG [Mat - Same State 1 - Mod of UCT - D35] (puzzle: Same State 1)	61.8 nM	122 nM	359 nM	–	–	–
GUAUCUUCAGGUUGCAAUGCUCGUCGGAUACAUGAGGAUCACCCAUGUUAUUAACCUGUGCUUGCGCGGGUAUGAUU [Photon Torp-01] (puzzle: Sensor for hsa-mir-208a)	21.8 nM	32.5 nM	23.3 nM	–	–	–
GUCAACACAAUAGGAUAUUAGACCAUGGAGCCGUACAUGAGGAUCACCCAUGUCUUAGGUUGAUCUAAGAAGGAUUCGUGACGU [Eternabot solution 47] (Eterna round: R96, puzzle: Same State NG 2)	–	–	–	53.4 nM	59.1 nM	86 nM
GUCAGGCAAGCUUUUUUCUCGUAGUGUAAACAUGAGGAUCACCCAUGUGCUCGCCCUGGAUCUUUGGAUCGCGGAAA [Xeatesis] (puzzle: Sensor for hsa-mir-208a)	34.6 nM	19.8 nM	36.5 nM	–	–	–
GUCCAAAACACAGGAUAUCCCAGUCAUGAUCUGGGAGAAGGGUGGCCACAUGAGGAUCACCCAUGUGAAGUGCCAGAGGCACGA [Xexeraed] (Eterna round: R96, puzzle: Same State NG 1)	–	–	–	373 nM	876 nM	1020 nM
GUGCAACCGUGUGAGGAUAUCGGUGGUAAAACAUGAGGAUCACCCAUGUCCGAAGCUCGGAUCUCCGAGAAGGCGCACAGUUGCA [Same State 2 - Mod of Erisin v.2] (puzzle: Same State 2)	27.8 nM	290 nM	470 nM	–	–	–
GUGCUCGUGUGAGGAUAUGCUUCCGUUUCGGCUGCAGAAGGUACUAUUAUACAUGAGGAUCACCCAUGUCCCUUUUCUCCGGUG [salish99_SSNG1_r04_914] (Eterna round: R96, puzzle: Same State NG 1)	–	–	–	18.4 nM	13.5 nM	21.9 nM
GUGGAGGGUUGAGGAUAUUGAAUACAUAUGUUUAACAUGAGGAUCACCCAUGUGGGUUGCGGUAUCGAGAAGGUAGGUUGCUGG [salish99_SSNG2_r04_039] (Eterna round: R96, puzzle: Same State NG 2)	–	–	–	96.7 nM	45.2 nM	84.9 nM
GUGGCACAUGAGGAUCACCCAUGUAGGUAGAACAUAGGAUAUCACCAACAAAAUACCUGGUGAGAAGGAUGAUGCC [Zaesleer] (puzzle: Same State 1)	–	143 nM	–	–	–	–
